Patent publication US10501502B2, “Allophycocyanin alpha-subunit evolved labeling proteins (smURFPs)” (The Regents of the University of California, priority 2016, dated 2019)

Legend:
[1] = Incorporation rates in vitro of BV on initially chromophore-free smURFP; format: biochemical
Method: (§1) EX and EM spectra were obtained using SPEX Fluorolog fluorometer (Horiba). Absorbance spectra were obtained using UV-VIS Spectrophotometer Cary Eclipse (Varian) or UV-2700 (Shimadzu). Quantum yield was determined relative to Cy5. Incorporation rates of BV on 0.5 μM smURFP was performed by addition of smURFP to PBS alone or with 20% fetal bovine serum (FBS) and mixed by pipetting in a quartz cuvette. Chromophore was added last, mixed by pipetting, and fluorescence was recorded using SPEX Fluorolog fluorometer (Horiba). Photobleaching was characterized on bubbles of purified FP or Cy5 within mineral oil using light from a 150 W xenon arc lamp with 100% light through EX/EM=628(40)/680(30) nm for smURFP, TDsmURFP, and Cy5 or EX/EM=665 (45)/725 (50) nm for IFP 1.4 focused with a 40×, 1.2 numerical aperture C-Apochromat oil-immersion lens on a Zeiss Axiovert 200M inverted microscope. Photobleaching times were normalized to reflect an initial illumination intensity producing 1,000 photons per fluorescent molecule per second as previously described^37.

[2] = In vitro photobleaching of bubbles of purified FP or Cy5 in mineral oil; format: physicochemical
Method: as §1

HT1080 tumor xenografts = assay: Fluorescence imaging of HT1080 tumor xenografts in vivo; parameters: species or system mice
Source text: HT1080 cells were infected with CMV with smURFP-T2A-mCherry, smURFP-T2A-mCardinal, smURFP, and mCardinal lentiviruses in culture, and expression was verified by fluorescence imaging (FIG. 19a, ≥99% efficiency and FIG. 20a, ≥95% efficiency) using filters described in the previous section. All procedures using mice were approved by UCSD IACUC (#S03172M) and are consistent with the recommendations of the American Veterinary Medical Association. One million HT1080 cells expressing smURFP-T2A-mCherry were injected subcutaneously into the lateral, ventral, and upper right and left quadrant, or smURFP and mCardinal were injected subcutaneously into the lateral, dorsal, and lower right and left quadrant of four 5-week-old athymic nude female mice. Tumors were allowed to grow until ˜0.1-1 cm in diameter (˜2 weeks). Mice were anesthetized with isoflurane (1.5%) at a 2 liter/min flow, injected with ketamine-midazolam (intraperitoneal (IP), 80 mg/kg, 4 mg/kg), placed on a heated pad, and imaged before exogenous BV injection. 250 nmol BV was injected by intravenous (IV) tail vein, and mice were imaged 5, 30, 60, and 120 min after BV injection for smURFP-T2A-mCherry. 250 nmol BV or BVMe2 was injected by intravenous tail vein, and mice were imaged 60 min, 24 h, and 48 h after BV injection for smURFP and mCardinal tumors. Mice were imaged using a Maestro in vivo Imaging System (Cambridge Research & Instrumentation, CRI). FPs were imaged with the following filters: mCherry, EX/EM=590(23)/615LP nm and liquid crystal, 620 nm; mCardinal EX/EM=607(36)645LP nm and liquid crystal, 660 nm; and smURFP EX/EM=620(20)/645LP nm or EX/EM=640(47)/700LP and liquid crystal, 710 nm. […] Tumors were removed, washed 2× in 2 ml DMEM+10% FBS, labeled in 2 ml DMEM+10% FBS+10 μM BV or BVMe2 at 4° C. for 24 h, imaged, labeled in 2 ml DMEM+10% FBS+10 μM BV or BVMe2 at 37° C. for 24 h, and imaged (FIG. 20g).

[3] = 0.5 μM smURFP in PBS + 20% FBS, + 0.1 μM BV
[4] = 0.5 μM smURFP in PBS + 20% FBS, + 0.1 μM BV (pH 9.4)
[5] = 0.5 μM smURFP in PBS + 20% FBS, + 0.1 μM BV + 1 mM DTT
[6] = 0.5 μM smURFP in PBS + 20% FBS, + 1 μM BV
[7] = 0.5 μM smURFP in PBS + 20% FBS, + 1 μM BV (pH 9.4)
[8] = 0.5 μM smURFP in PBS + 20% FBS, + 1 μM BV + 1 mM DTT
[9] = 0.5 μM smURFP in PBS + 20% FBS, + 10 μM BV
[10] = 0.5 μM smURFP in PBS + 20% FBS, + 10 μM BV (pH 9.4)
[11] = 0.5 μM smURFP in PBS + 20% FBS, + 10 μM BV + 1 mM DTT
[12] = 0.5 μM smURFP in PBS + 20% FBS, Avg. 3 Conc.
[13] = 0.5 μM smURFP in PBS + 20% FBS, Avg. 3 Conc. (pH 9.4)
[14] = 0.5 μM smURFP in PBS + 20% FBS, Avg. 3 Conc. + 1 mM DTT
[15] = 0.5 μM smURFP in PBS, + 0.1 μM BV
[16] = 0.5 μM smURFP in PBS, + 0.1 μM BV (pH 8)
[17] = 0.5 μM smURFP in PBS, + 0.1 μM BV + 1 mM DTT
[18] = 0.5 μM smURFP in PBS, + 1 μM BV
[19] = 0.5 μM smURFP in PBS, + 1 μM BV (pH 8)
[20] = 0.5 μM smURFP in PBS, + 1 μM BV + 1 mM DTT
[21] = 0.5 μM smURFP in PBS, + 10 μM BV
[22] = 0.5 μM smURFP in PBS, + 10 μM BV (pH 8)
[23] = 0.5 μM smURFP in PBS, + 10 μM BV + 1 mM DTT
[24] = 0.5 μM smURFP in PBS, Avg. 3 Conc.
[25] = 0.5 μM smURFP in PBS, Avg. 3 Conc. (pH 8)
[26] = 0.5 μM smURFP in PBS, Avg. 3 Conc. + 1 mM DTT

B1: smURFP: small ultra-red fluorescent protein, SEQ ID NO: 13, homodimer, covalently attaches biliverdin (protein)
chain: MKTSEQRVNIATLLTENKKKIVDKASQDLWRRHPDLIAPGGIAFSQRDRALCLRDYGWFLHLITFCLLAGDKGPIESIGLISIREMYNSLGVPVPAMMESIRCLKEASLSLLDEEDANETAPYFDYIIKAMS
modifications: homodimer; biliverdin chromophore; smRUFP Variant Polypeptide
A [1, 3]: 1.1 | T50% [1, 3]: 43 min | k [1, 3]: 0.016 min⁻¹ | A [1, 4]: 0.95 | T50% [1, 4]: 7.1 min | k [1, 4]: 0.097 min⁻¹ | A [1, 5]: 0.95 | T50% [1, 5]: 30 min | k [1, 5]: 0.023 min⁻¹ | A [1, 6]: 1.1 | T50% [1, 6]: 58 min | k [1, 6]: 0.012 min⁻¹ | A [1, 7]: 0.99 | T50% [1, 7]: 16 min | k [1, 7]: 0.043 min⁻¹ | A [1, 8]: 0.95 | T50% [1, 8]: 32 min | k [1, 8]: 0.022 min⁻¹ | A [1, 9]: 1.1 | T50% [1, 9]: 46 min | k [1, 9]: 0.015 min⁻¹ | A [1, 10]: 0.99 | T50% [1, 10]: 11 min | k [1, 10]: 0.063 min⁻¹ | A [1, 11]: 0.96 | T50% [1, 11]: 16 min | k [1, 11]: 0.043 min⁻¹ | A [1, 12]: 1.1 | T50% [1, 12]: 50 min | k [1, 12]: 0.014 min⁻¹ | A [1, 13]: 0.98 | T50% [1, 13]: 11 min | k [1, 13]: 0.066 min⁻¹ | A [1, 14]: 0.95 | T50% [1, 14]: 24 min | k [1, 14]: 0.029 min⁻¹ | A [1, 15]: 1.1 | T50% [1, 15]: 29 min | k [1, 15]: 0.024 min⁻¹ | A [1, 16]: 1.1 | T50% [1, 16]: 24 min | k [1, 16]: 0.029 min⁻¹ | A [1, 17]: 1.1 | T50% [1, 17]: 58 min | k [1, 17]: 0.012 min⁻¹ | A [1, 18]: 1.1 | T50% [1, 18]: 46 min | k [1, 18]: 0.015 min⁻¹ | A [1, 19]: 1.1 | T50% [1, 19]: 24 min | k [1, 19]: 0.029 min⁻¹ | A [1, 20]: 1.1 | T50% [1, 20]: 63 min | k [1, 20]: 0.011 min⁻¹ | A [1, 21]: 1.1 | T50% [1, 21]: 46 min | k [1, 21]: 0.015 min⁻¹ | A [1, 22]: 1.1 | T50% [1, 22]: 22 min | k [1, 22]: 0.032 min⁻¹ | A [1, 23]: 1.1 | T50% [1, 23]: 46 min | k [1, 23]: 0.015 min⁻¹ | A [1, 24]: 1.0 | T50% [1, 24]: 39 min | k [1, 24]: 0.018 min⁻¹ | A [1, 25]: 1.1 | T50% [1, 25]: 2 min | k [1, 25]: 0.030 min⁻¹ | A [1, 26]: 1.1 | T50% [1, 26]: 53 min | k [1, 26]: 0.013 min⁻¹ | chromophore maturation or attachment t50% ([1]; BV attachment): 39^ min | in vitro photobleaching t50% ([2]; excitation intensity yielding 1,000 photons per s): 300 s | In vitro photostability t50% ([2]; time to bleach 50% from an initial emission rate of 1,000 photons per s): 300 s | fluorescence change after 250 nmol BV intravenously (HT1080 tumor xenografts; after 2 h): no increase in fluorescence | fold dimmer than mCardinal in vivo (HT1080 tumor xenografts; at 607 nm): ~7.3 fold | fold dimmer than mCardinal in vivo (HT1080 tumor xenografts; at 640 nm): ~4 fold | fluorescence of excised tumors with 10 μM BV or BVMe2 (HT1080 tumor xenografts; ex vivo): enhanced fluorescence | fluorescence in tumor xenografts without exogenous BV (HT1080 tumor xenografts; mouse, in vivo): visible without exogenous BV | loss of fluorescence through the skin (HT1080 tumor xenografts; mouse, in vivo): 25% | fluorescence change after injection of 250 nmol BV or BVMe2 (HT1080 tumor xenografts; smURFP vs mCardinal tumors): no increase in fluorescence in vivo | fluorescence intensity relative to mCherry in vivo (HT1080 tumor xenografts; without exogenous BV): 35%
